T1: human CEA protein on the cell surface (human, UniProt P06731 35-685)
T1 construct: whole, on cells; also called CEACAM-5; CD66e
T1 sequence (looked up): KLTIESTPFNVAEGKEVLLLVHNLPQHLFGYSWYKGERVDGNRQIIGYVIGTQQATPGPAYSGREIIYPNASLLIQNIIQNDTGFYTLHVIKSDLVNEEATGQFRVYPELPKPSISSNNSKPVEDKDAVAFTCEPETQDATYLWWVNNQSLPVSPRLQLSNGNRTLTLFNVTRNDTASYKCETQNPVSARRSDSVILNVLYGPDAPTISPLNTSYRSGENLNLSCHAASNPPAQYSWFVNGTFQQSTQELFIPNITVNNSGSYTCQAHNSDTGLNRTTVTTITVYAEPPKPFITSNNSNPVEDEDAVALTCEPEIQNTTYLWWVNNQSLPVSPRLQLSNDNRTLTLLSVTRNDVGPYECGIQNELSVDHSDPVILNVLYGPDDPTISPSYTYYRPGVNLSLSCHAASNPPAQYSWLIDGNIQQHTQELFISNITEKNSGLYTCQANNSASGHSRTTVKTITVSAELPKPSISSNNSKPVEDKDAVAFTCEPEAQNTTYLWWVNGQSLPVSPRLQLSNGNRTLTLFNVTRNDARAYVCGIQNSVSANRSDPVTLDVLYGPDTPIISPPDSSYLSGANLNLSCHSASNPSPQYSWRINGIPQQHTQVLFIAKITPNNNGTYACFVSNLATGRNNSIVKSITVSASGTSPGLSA

T2: human CEACAM1 expressed on CHO cell surface (human, UniProt P13688 35-526)
T2 construct: also called CEACAM1-CHO
T2 sequence: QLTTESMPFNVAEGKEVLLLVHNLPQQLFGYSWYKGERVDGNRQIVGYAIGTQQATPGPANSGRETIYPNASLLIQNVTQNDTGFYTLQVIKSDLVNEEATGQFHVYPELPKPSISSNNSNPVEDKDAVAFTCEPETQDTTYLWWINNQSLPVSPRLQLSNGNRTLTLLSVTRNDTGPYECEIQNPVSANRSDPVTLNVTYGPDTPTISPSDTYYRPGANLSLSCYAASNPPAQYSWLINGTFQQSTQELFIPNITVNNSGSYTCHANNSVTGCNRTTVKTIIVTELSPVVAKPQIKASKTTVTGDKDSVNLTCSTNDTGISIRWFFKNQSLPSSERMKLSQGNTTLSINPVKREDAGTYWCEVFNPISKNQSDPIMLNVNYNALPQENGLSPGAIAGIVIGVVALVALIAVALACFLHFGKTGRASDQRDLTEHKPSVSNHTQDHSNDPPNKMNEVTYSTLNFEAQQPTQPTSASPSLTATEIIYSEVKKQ

T3: monkey CEA expressed on CHO cell surface (cynomolgus monkey)
T3 construct: also called cynoCEA-CHO; monkey CEA proteins on the cell surface
T3 chain: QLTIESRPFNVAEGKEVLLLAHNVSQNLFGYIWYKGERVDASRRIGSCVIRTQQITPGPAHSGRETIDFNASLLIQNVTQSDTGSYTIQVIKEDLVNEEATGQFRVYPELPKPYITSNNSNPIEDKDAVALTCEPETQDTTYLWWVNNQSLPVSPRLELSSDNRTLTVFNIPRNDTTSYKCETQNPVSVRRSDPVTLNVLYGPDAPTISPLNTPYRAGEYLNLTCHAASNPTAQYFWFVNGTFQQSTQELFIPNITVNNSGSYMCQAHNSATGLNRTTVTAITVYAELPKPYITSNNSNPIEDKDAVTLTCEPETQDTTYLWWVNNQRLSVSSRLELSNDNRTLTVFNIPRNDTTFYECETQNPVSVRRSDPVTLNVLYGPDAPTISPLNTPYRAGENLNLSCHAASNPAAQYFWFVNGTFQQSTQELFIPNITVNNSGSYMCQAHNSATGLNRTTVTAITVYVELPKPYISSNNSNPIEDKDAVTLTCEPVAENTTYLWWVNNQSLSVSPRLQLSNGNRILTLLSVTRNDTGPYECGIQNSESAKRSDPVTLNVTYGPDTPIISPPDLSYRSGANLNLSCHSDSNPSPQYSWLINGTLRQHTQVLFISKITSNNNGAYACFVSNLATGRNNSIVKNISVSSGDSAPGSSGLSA

T4: human soluble CEA (human, UniProt P06731 35-685, limits assumed)
T4 construct: also called sCEA
T4 sequence (looked up): T1 sequence (looked up)

B1: mAb63 (antibody, V domains shown)
VH: EVQLQQSGPELVKPGASVKMSCKASGYTFTDFYMNWVRQSHGKSLEWIGDIFPKNGNTDYNRKFKDKATLTVDKSSNTVYMEFRSLTLEDSAIYFCARSGYGNYVFDYWGQGTIFTVSS
VL: DVQMTQTPSALSASLGDRVTISCRTSQDINIYLNWYQQKPDGTVKLLIYYRSGLLSGVPSRFSGSGSGTDYSLTISNLEPEDIATYFCQQGNTLPPTFGGGTKLEIK
notes: Murine hybridoma antibody
B2: mAb67 (antibody, V domains shown)
VH: EVQLQQSGPELVKPGASVKIYCKASGYTFTDYHMNWVKQSHGKSLEWIGDINPDIGGTSYNQNFKGKATLTVDKSSSTAYMELRSLTSEDSAVYYCSRWDFDSFANWGQGTLVTVSA
VL: DIVMTQSPASLAMSLGKRATISCRASESVSIIGTNLIHWYQQKPGQPPKLLIYHASNLETGVPARFSGSGSGADFTLTIDPVEGDDVALYYCLQSRKIPYTFGGGTKMEIK
notes: Murine hybridoma antibody
B3: mAb47 (antibody, V domains shown)
VH: QIQLVQSGPELKKPGETVKISCKASGYTFTTYGMSWVKQAPGKGLKWMGWINTYSGVPTYADDFKGRFAFSLETSASTAYLQINNLKNEDTATYFCARRGNYGRWDFDVWGTGTTVTVSS
VL: EIVLTQSPALMAASPGEKVTITCSVSSTISSSNLHWYQQKSETSPKPWIYGTSNLASGVPVRFSGSGSGTSYSLTISSMEAEDAATYYCQQWSIYPLTFGAGTKLELK
notes: Murine hybridoma antibody
B4: Hu103-32 (antibody, human IgG1, lambda, V domains shown)
VH: EVQLVQSGSELKKPGASVKVSCKASGYTFTTYGVIWVRQAPGQGLEWMGWINTYSGVPTYASDFKGRFVFSLDTSVSTAYLQISSLKAEDTAVYYCARKKTLTTVTPWFAYWGQGTLVTVSS
VL: ELVLTQSPSASASLGASVKLTCTLSSQHSTYTIEWYQQQPEKGPRYVMELKKDGSHSTGEGIPDRFSGSSSGAERYLTISSLQSEDEADYYCGVGNTIKEQFVYVFGGGTKLTVLG
notes: Humanized IgG1/lambda; h103VH4 + h103VL8
B5: Hu47-14 (antibody, human IgG1, kappa, V domains shown)
VH: EVQLVQSGSELKKPGASVKVSCKASGYTFTTYGMSWVKQAPGQGLKWMGWINTYSGVPTYASDFKGRFVFSLDTSVSTAYLQISSLKAEDTAVYYCARRGNYGRWDFDVWGQGTTVTVSS
VL: EIVLTQSPDFQSVTPKEKVTITCSVSSTISSSNLHWYQQKPDQSPKPLIYGTSNLASGVPSRFSGSGSGTDYTLTINSLEAEDAATYYCQQWSIYPLTFGQGTKLEIKR
notes: Humanized IgG1/kappa; h47VH4 + h47VL2
B6: Hu63-13 (antibody, human IgG1, kappa, V domains shown)
VH: EVQLVQSGAEVKKPGASVKVSCKASGYTFTDFYMNWVRQAPGQGLEWMGDIFPKSGNTDYNRKFKDRVTMTRDTSTSTVYMELSSLRSEDTAVYYCARSGYGNYVFDYWGQGTLVTVSS
VL: DIQMTQSPSSLSASVGDRVTITCRTSQDINIYLNWYQQKPGKAPKLLIYYRSGLLSGVPSRFSGSGSGTDFTLTISSLQPEDFATYYCQQGNTLPPTFGGGTKVEIKR
notes: Humanized IgG1/kappa; h63VH5 + h63VL1
B7: Labetuzumab (antibody, human IgG1, kappa, V domains shown)
VH: EVQLVESGGGVVQPGRSLRLSCSASGFDFTTYWMSWVRQAPGKGLEWIGEIHPDSSTINYAPSLKDRFTISRDNAKNTLFLQMDSLRPEDTGVYFCASLYFGFPWFAYWGQGTPVTVSS
VL: DIQLTQSPSSLSASVGDRVTITCKASQDVGTSVAWYQQKPGKAPKLLIYWTSTRHTGVPSRFSGSGSGTDFTFTISSLQPEDIATYYCQQYSLYRSFGQGTKVEIKR
notes: Positive control antibody; also called Lmab; antibody in Lmab-CL2A-SN38
B8: antibody in SAR-408701 (antibody, human IgG1, kappa, V domains shown)
VH: EVQLQESGPGLVKPGGSLSLSCAASGFVFSSYDMSWVRQTPERGLEWVAYISSGGGITYAPSTVKGRFTVSRDNAKNTLYLQMNSLTSEDTAVYYCAAHYFGSSGPFAYWGQGTLVTVSS
VL: DIQMTQSPASLSASVGDRVTITCRASENIFSYLAWYQQKPGKSPKLLVYNTRTLAEGVPSRFSGSGSGTDFSLTISSLQPEDFATYYCQHHYGTPFTFGSGTKLEIKR
notes: Positive control antibody; also called Sanofi
B9: Hu67-14 (antibody, human IgG1, kappa, V domains shown)
VH: EVQLVQSGAEVKKPGESLKISCKGSGYSFTDYHMNWVKQMPGKGLEWMGDINPDIGGTSYNQNFKGKVTISVDKSISTAYLQWSSLKASDTAMYYCARWDFDSFANWGQGTLVTVSS
VL: DIQMTQSPSSLSASVGDRVTITCRASESVSIIGTNLIHWYQQKPGKAPKLLIYHASNLETGVPSRFSGSGSGTDFTLTISSLQPEDFATYYCLQSRKIPYTFGGGTKVEIKR
notes: Humanized IgG1/kappa; h67VH3 + h67VL4

The first test addresses T1, human CEA protein on the cell surface. Briefly: FACS, MKN45 cells. (Flow cytometry measures light scatter and fluorescence of single cells or particles in a stream.)
On to B1, for which it took 3.62 nM to reach a half-maximal effect (EC50).

Regarding B2, the EC50 (in general, the concentration giving half of the maximal effect) came out at 1.9 nM.

In turn, B3 had an EC50 of 2.1 nM.

Another test shares this target. In words: FACS, MKN45 cells. This is another data set of the same source.
As to B4, the midpoint of the response, the EC50, lay at 1.79 nM.

B5: the EC50 was 4.19 nM.

B6 gave an EC50 of 2.93 nM.

Take B7: a half-maximal response (EC50) required 2.45 nM.

The target of the next test is T2, human CEACAM1 expressed on CHO cell …. In words: FACS, CEACAM1-CHO cells.
Regarding B1, the binding result is “no binding”.

On to B2, for which the binding result is “no binding”.

On to B3, for which the binding result was “no binding”.

A further test has as its target T3, monkey CEA expressed on CHO cell surface. Briefly: FACS, cynoCEA-CHO cells.
Consider B1, for which the EC50 was 2.88 nM.

In turn, B2 yielded an EC50 of 6 nM.

Turning to B3, the response was half-maximal at 1.66 nM (EC50).

For another test, the target named is T2, human CEACAM1 expressed on CHO cell …. In words: FACS, CEACAM1-CHO cells. The source holds these as a separate data set.
Regarding B4, the binding result is given as “no binding”.

On to B8, for which the binding result was “no binding”.

Consider B5, for which the binding result is on record as “no binding”.

In the case of B6, the binding result is listed as “no binding”.

For the molecule B7, the binding result is “no binding”.

As for B9, the binding result is reported as “no binding”.

For another test, the target named is T3, monkey CEA expressed on CHO cell surface. In words: FACS, cynoCEA-CHO cells. This is another data set of the same source.
Consider B8, for which the EC50 was determined as 17.3 nM.

In the case of B5, it took 2.7 nM to reach a half-maximal effect (EC50).

B6: the concentration giving a half-maximal response (EC50) came out at 1.71 nM.

Regarding B7, the binding result is “no binding”.

B9 had an EC50 of 2.89 nM.

The target in the next test is T1, human CEA protein on the cell surface. In words: FACS, MKN45 cells, -/+ 5 ug/mL sCEA as competitor. On the procedure: The gradient-diluted antibody and the pre-incubated mixed solution of the antibody and sCEA was added into each well. The plate was incubated at 4° C. for 60 min and centrifuged, and the supernatant was removed. The cells were washed twice with pre-cooled PBS containing FBS at final concentration 10%. 50 μL of 1:200 diluted secondary antibody Alexa Fluor@488 goat anti-human IgG (H+L) (Lifetechologies, Cat #A11013) was added. […] The cells were washed twice with 250 μL of pre-cooled PBS with FBS at final concentration 10%. 100 μL of pre-cooled PBS was added to each well to resuspend the cells. The suspension was analyzed by a flow cytometer (FACS) (BD, FACSverse) for fluorescence signal values.
In the case of B1, the “maximum ratio of fluorescence signals (absence of sCEA / presence of sCEA)” value was found to be 1.43.

The target of a further test is T4, human soluble CEA. In words: SPR (Biacore T200), antibody captured, soluble CEA as analyte, 1:1 Langmuir. The procedure: The affinity of a test humanized antibody for human and monkey soluble CEA was determined using a Biacore (GE, T200) instrument. According to the method in the instructions of a human antibody capture kit (GE, Cat #BR-1008-39), the human antibody capture antibody was covalently conjugated to a biosensor chip CM5 (GE, Cat #BR-1005-30) of the Biacore instrument to affinity-capture a certain amount of the test antibody, then a series of concentration gradients of soluble CEA antigens were allow to flow through the surface of the chip, and reaction signals were detected in real time using Biacore, so that an association and dissociation curve was obtained. After each cycle of dissociation was completed, the biochip was washed and regenerated with a regeneration solution prepared in the human antibody capture kit. The data obtained from the experiment were fitted with the (1:1) Langmuir model using BIAevaluation version 4.1 software to obtain affinity values.
A general note: In SPR one partner is held on a chip, and binding of the other changes the refractive index at the surface.
As to B4, the affinity, expressed as Kd, was 31.1 nM.

On to B5, for which the Kd (usually the constant that tells how readily two partners part at equilibrium) was 1430 nM.

The molecule B6 had a Kd of 144 nM.

In turn, B7 registered a Kd of 5.93 nM.

The molecule B9 displayed a Kd of 228 nM.
